Source: publication PMC11500415, “Chemical inhibition of stomatal differentiation by perturbation of the master-regulatory bHLH heterodimer via an ACT-Like domain” (Nature Communications, 2024)
Each block holds one binder with its values, some of them ahead of it.

Key:
Settings in all cases: both partners purified
recombinant SCRM (1-494) [1] = target: T1, recombinant SCRM (1-494) (A. thaliana, UniProt Q9LSE2 1-494); assay: BLI; Octet Red96, anti-GST probes loaded with 500 nM GST tagged protein, 30 °C, 1× PBS, 2% DMSO, 0.02% Tween20; 1:1 model, steady-state analysis; without Stomidazolone
T1 construct: Used in ITC and BLI; In BLI one partner was loaded GST-tagged on anti-GST probes; also called SCREAM; ICE1; source: E. coli BL21, purified (glutathione resin, thrombin, Superdex-200); not shown: GST, N-terminal, cleaved
T1 sequence (looked up): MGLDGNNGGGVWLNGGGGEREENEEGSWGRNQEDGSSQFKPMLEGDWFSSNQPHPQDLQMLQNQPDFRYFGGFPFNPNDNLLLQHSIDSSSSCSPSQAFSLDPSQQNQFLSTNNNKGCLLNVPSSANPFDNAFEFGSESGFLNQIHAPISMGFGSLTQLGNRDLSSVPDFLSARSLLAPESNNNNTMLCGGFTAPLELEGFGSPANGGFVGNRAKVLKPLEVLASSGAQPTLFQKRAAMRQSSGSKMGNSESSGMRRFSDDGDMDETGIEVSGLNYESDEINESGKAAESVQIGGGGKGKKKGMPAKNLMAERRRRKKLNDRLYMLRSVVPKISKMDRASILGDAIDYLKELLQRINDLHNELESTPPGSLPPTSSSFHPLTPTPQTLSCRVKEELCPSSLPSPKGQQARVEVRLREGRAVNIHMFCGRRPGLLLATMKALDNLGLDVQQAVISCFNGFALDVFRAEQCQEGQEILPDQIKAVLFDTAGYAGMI

recombinant SCRM (1-494) [2] = target: T1, recombinant SCRM (1-494); assay: BLI; Octet Red96, anti-GST probes loaded with 500 nM GST tagged protein, 30 °C, 1× PBS, 2% DMSO, 0.02% Tween20; MUTE pre-incubated with Stomidazolone
recombinant SCRM (1-494) [3] = target: T1, recombinant SCRM (1-494); assay: ITC; Malvern PEAQ-ITC, 30 °C, PBS pH 7.4, 2% DMSO, 1 mM DTT; MUTE pre-incubated with Stomidazolone
recombinant SCRM (1-494) [4] = target: T1, recombinant SCRM (1-494); assay: ITC; Malvern PEAQ-ITC, 30 °C, PBS pH 7.4, 2% DMSO, 1 mM DTT; without Stomidazolone

Kd (recombinant SCRM (1-494) [1]): 7.5 ± 1.2 nM
Kd (recombinant SCRM (1-494) [2]): 856 ± 15.1 nM
B1: recombinant MUTE (1-202), as used in BLI (natural protein, A. thaliana, UniProt Q9M8K6 1-202, looked up)
chain: MSHIAVERNRRRQMNEHLKSLRSLTPCFYIKRGDQASIIGGVIEFIKELQQLVQVLESKKRRKTLNRPSFPYDHQTIEPSSLGAATTRVPFSRIENVMTTSTFKEVGACCNSPHANVEAKISGSNVVLRVVSRRIVGQLVKIISVLEKLSFQVLHLNISSMEETVLYFFVVKIGLECHLSLEELTLEVQKSFVSDEVIVSTN
notes: also called full-length MUTE; source: E. coli BL21, purified (glutathione resin)

Kd (recombinant SCRM (1-494) [3]): 900 ± 34.5 nM
Kd (recombinant SCRM (1-494) [4]): 9.5 ± 1.6 nM
B2: recombinant MUTE (1-202), as used in ITC (natural protein, A. thaliana, UniProt Q9M8K6 1-202, looked up)
chain: B1 chain
notes: also called full-length MUTE; source: E. coli BL21, purified (glutathione resin, thrombin, Superdex-200); not shown: GST, N-terminal, cleaved
